Literature values, collected in publication PMC9477731.

Target: CD28 (Homo sapiens) (UniProt P10747)

Kd: 4 µM
Substance: CD80 (from UniProt P33681)
